Results published in patent US20110263454A1, “Methods of Identifying Functional Characteristics of Promoters, Transcription Modifying Proteins and Transcription Modulating Agents” (Salk Institute for Biological Studies, priority 2008, published 2011).

What was measured:
[1] = system: mAdiponectin promoter; test: NHR-promoter luciferase screen, mAdiponectin promoter; type: cell-based, mouse; settings: for Luc. act., normalized to lacZ / Normalized Luc. act., normalized to control: Adiponectin, HR component without or with its ligand; for mAdiponectin promoter reporter activity: transcription factor +/- ligand, control = 1.00
In short: (§1)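 CV-1 cells were co-transfected with 50 ng NHR (homodimer or NHR/RXR heterodimer), 100 ng promoter-luciferase construct and 50 ng LacZ. Luciferase was normalized to LacZ and to a no-NHR/no-ligand control.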

[2] = system: RevErba promoter; test: NHR-promoter luciferase screen, RevErba (RVRa) promoter; type: cell-based; design: key to mRevErba promoter reporter activity / Normalized Luc. act., normalized to control: luciferase activity normalized to lacZ and to control (no NHR/ligand); settings: for Luc. act., normalized to lacZ / Normalized Luc. act., normalized to control / negative reciprocal of normalized Luc. act. (fold repression; Table 33) / normalized Luc. act. on a logarithmic scale (column without head, Table 33): RVRa promoter; for Luc. act., normalized to lacZ / Normalized Luc. act., normalized to control: HR component without or with ligand; for negative reciprocal of normalized Luc. act. (fold repression; Table 33): given only where activity is below control; for normalized Luc. act. on a logarithmic scale (column without head, Table 33): log10 of activity normalized to control; for mRevErba promoter reporter activity: transcription factor +/- ligand, control = 1.00
In short: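 Reporter readout: RevErbα promoter-driven luciferase, corrected for LacZ transfection efficiency and expressed relative to a no-receptor or no-ligand control. Receptors (V5H6-tagged, pcDNA3.1), alone or with RXR, plus any ligand, were expressed in CV-1 cells.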

[3] = system: mPer1 promoter; test: NHR-promoter luciferase screen, mPer1 promoter; type: cell-based, mouse; settings: for Luc. act., normalized to lacZ / Normalized Luc. act., normalized to control: Per1 promoter reporter, co-transfected HR, with or without its ligand; for Normalized Luc. act., normalized to control: relative to control; for luciferase activity normalized to lacZ activity and to a control, mPer1: mPer1 promoter-luciferase, CV-1 cells, NHR +/- ligand, control = 1.00
In short: as §1

[4] = system: mPgc1b promoter; test: NHR-promoter luciferase screen, mPgc1b promoter; type: cell-based, mouse; settings: for Luc. act., normalized to lacZ / Normalized Luc. act., normalized to control: PGC1b promoter reporter, co-transfected HR, without or with its ligand; for Normalized Luc. act., normalized to control: relative to control; for luciferase activity normalized to lacZ activity and to a control, mPgc1b: mPgc1b promoter-luciferase, CV-1 cells, NHR +/- ligand, control = 1.00
In short: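 Luciferase reporter read-out after co-expression in CV-1 cells of V5H6-tagged receptor (alone or with RXR), the promoter construct and LacZ. Values are luciferase/LacZ relative to a control lacking NHR or ligand; orphan receptors tested ligand-free.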

[5] = system: hPPARg1 promoter; test: NHR-promoter luciferase screen, hPPARg1 promoter; type: cell-based, human; settings: for Luc. act., normalized to lacZ / Normalized Luc. act., normalized to control: PPARG1 promoter, hormone receptor with or without its ligand; for Normalized Luc. act., normalized to control: relative to control; for Results of assays of transcription factor (+/- ligand) with hPPARg1: Table 6d, luciferase activity relative to control (control = 1.00)
In short: as §1

Molecule	Luc. act., normalized to lacZ [1]	Normalized Luc. act., normalized to control [1]	mAdiponectin promoter reporter activity [1]	Luc. act., normalized to lacZ [2]	Normalized Luc. act., normalized to control [2]	negative reciprocal of normalized Luc. act. (fold repression; Table 33) [2]	normalized Luc. act. on a logarithmic scale (column without head, Table 33) [2]	mRevErba promoter reporter activity [2]	Luc. act., normalized to lacZ [3]	Normalized Luc. act., normalized to control [3]	luciferase activity normalized to lacZ activity and to a control, mPer1 [3]	Luc. act., normalized to lacZ [4]	Normalized Luc. act., normalized to control [4]	luciferase activity normalized to lacZ activity and to a control, mPgc1b [4]	Luc. act., normalized to lacZ [5]	Normalized Luc. act., normalized to control [5]	Results of assays of transcription factor (+/- ligand) with hPPARg1 [5]
RXRb: Retinoic X Receptor β (NR2B2), cDNA driver (protein, UniProt P28702 1-533, looked up) Retinoic acid receptor …: MSWAARPPFLPQRHAAGQCGPVGVRKEMHCGVASRWRRRRPWLDPAAAAAAAVAGGEQQTPEPEPGEAGRDGMGDSGRDSRSPDSSSPNPLPQGVPPPSPPGPPLPPSTAPSLGGSGAPPPPPMPPPPLGSPFPVISSSMGSPGLPPPAPPGFSGPVSSPQINSTVSLPGGGSGPPEDVKPPVLGVRGLHCPPPPGGPGAGKRLCAICGDRSSGKHYGVYSCEGCKGFFKRTIRKDLTYSCRDNKDCTVDKRQRNRCQYCRYQKCLATGMKREAVQEERQRGKDKDGDGEGAGGAPEEMPVDRILEAELAVEQKSDQGVEGPGGTGGSGSSPNDPVTNICQAADKQLFTLVEWAKRIPHFSSLPLDDQVILLRAGWNELLIASFSHRSIDVRDGILLATGLHVHRNSAHSAGVGAIFDRVLTELVSKMRDMRMDKTELGCLRAIILFNPDAKGLSNPSEVEVLREKVYASLETYCKQKYPEQQGRFAKLLLRLPALRSIGLKCLEHLFFFKLIGDTPIDTFLMEMLEAPHQLA	71.8	1.1	1.14	17.38	0.6	−1.609	−0.21	0.62	50.5	0.4	0.35	11.7	1.0	0.99	23.1	0.3	0.34
RORb: RAR-related Orphan Receptor β (NR1F2), cDNA driver (protein, UniProt Q92753 1-470, looked up) Nuclear receptor ROR-beta: MCENQLKTKADATAQIEVIPCKICGDKSSGIHYGVITCEGCKGFFRRSQQNNASYSCPRQRNCLIDRTNRNRCQHCRLQKCLALGMSRDAVKFGRMSKKQRDSLYAEVQKHQQRLQEQRQQQSGEAEALARVYSSSISNGLSNLNNETSGTYANGHVIDLPKSEGYYNVDSGQPSPDQSGLDMTGIKQIKQEPIYDLTSVPNLFTYSSFNNGQLAPGITMTEIDRIAQNIIKSHLETCQYTMEELHQLAWQTHTYEEIKAYQSKSREALWQQCAIQITHAIQYVVEFAKRITGFMELCQNDQILLLKSGCLEVVLVRMCRAFNPLNNTVLFEGKYGGMQMFKALGSDDLVNEAFDFAKNLCSLQLTEEEIALFSSAVLISPDRAWLIEPRKVQKLQEKIYFALQHVIQKNHLDDETLAKLIAKIPTITAVCNLHGEKLQVFKQSHPEIVNTLFPPLYKELFNPDCATGCK	82.7	1.3	1.32	29.93	1.1		0.03	1.07	112.0	0.8	0.78	10.7	0.9	0.90	51.1	0.7	0.74
HNF4g: Hepatocyte Nuclear Factor γ (NR2A2), cDNA driver (protein, UniProt Q14541 1-408, looked up) Hepatocyte nuclear factor …: MNTTDNGVNCLCAICGDRATGKHYGASSCDGCKGFFRRSIRKSHVYSCRFSRQCVVDKDKRNQCRYCRLRKCFRAGMKKEAVQNERDRISTRRSTFDGSNIPSINTLAQAEVRSRQISVSSPGSSTDINVKKIASIGDVCESMKQQLLVLVEWAKYIPAFCELPLDDQVALLRAHAGEHLLLGATKRSMMYKDILLLGNNYVIHRNSCEVEISRVANRVLDELVRPFQEIQIDDNEYACLKAIVFFDPDAKGLSDPVKIKNMRFQVQIGLEDYINDRQYDSRGRFGELLLLLPTLQSITWQMIEQIQFVKLFGMVKIDNLLQEMLLGGASNDGSHLHHPMHPHLSQDPLTGQTILLGPMSTLVHADQISTPETPLPSPPQGSGQEQYKIAANQASVISHQHLSKQKQL	45.4	0.7	0.72	28.15	1.0		0.00	1.01	116.1	0.8	0.81	6.8	0.6	0.57	42.1	0.6	0.61
RXRg: Retinoic X Receptor γ (NR2B3), cDNA driver (protein, UniProt P48443 1-463, looked up) Retinoic acid receptor …: MYGNYSHFMKFPAGYGGSPGHTGSTSMSPSAALSTGKPMDSHPSYTDTPVSAPRTLSAVGTPLNALGSPYRVITSAMGPPSGALAAPPGINLVAPPSSQLNVVNSVSSSEDIKPLPGLPGIGNMNYPSTSPGSLVKHICAICGDRSSGKHYGVYSCEGCKGFFKRTIRKDLIYTCRDNKDCLIDKRQRNRCQYCRYQKCLVMGMKREAVQEERQRSRERAESEAECATSGHEDMPVERILEAELAVEPKTESYGDMNMENSTNDPVTNICHAADKQLFTLVEWAKRIPHFSDLTLEDQVILLRAGWNELLIASFSHRSVSVQDGILLATGLHVHRSSAHSAGVGSIFDRVLTELVSKMKDMQMDKSELGCLRAIVLFNPDAKGLSNPSEVETLREKVYATLEAYTKQKYPEQPGRFAKLLLRLPALRSIGLKCLEHLFFFKLIGDTPIDTFLMEMLETPLQIT	69.4	1.1	1.10	24.64	0.9	−1.135	−0.05	0.88	94.5	0.7	0.66	9.0	0.8	0.76	43.7	0.6	0.63
TR2: Testicular Orphan Nuclear Receptor 2 (NR2C1), cDNA driver (protein, UniProt P13056 1-603, looked up) Nuclear receptor subfamily 2 …: MATIEEIAHQIIEQQMGEIVTEQQTGQKIQIVTALDHNTQGKQFILTNHDGSTPSKVILARQDSTPGKVFLTTPDAAGVNQLFFTTPDLSAQHLQLLTDNSPDQGPNKVFDLCVVCGDKASGRHYGAVTCEGCKGFFKRSIRKNLVYSCRGSKDCIINKHHRNRCQYCRLQRCIAFGMKQDSVQCERKPIEVSREKSSNCAASTEKIYIRKDLRSPLTATPTFVTDSESTRSTGLLDSGMFMNIHPSGVKTESAVLMTSDKAESCQGDLSTLANVVTSLANLGKTKDLSQNSNEMSMIESLSNDDTSLCEFQEMQTNGDVSRAFDTLAKALNPGESTACQSSVAGMEGSVHLITGDSSINYTEKEGPLLSDSHVAFRLTMPSPMPEYLNVHYIGESASRLLFLSMHWALSIPSFQALGQENSISLVKAYWNELFTLGLAQCWQVMNVATILATFVNCLHNSLQQDKMSTERRKLLMEHIFKLQEFCNSMVKLCIDGYEYAYLKAIVLFSPDHPSLENMEQIEKFQEKAYVEFQDYITKTYPDDTYRLSRLLLRLPALRLMNATITEELFFKGLIGNIRIDSVIPHILKMEPADYNSQIIGHSI	37.5	0.6	0.60	52.3	1.9		0.27	1.87	103.1	0.7	0.72	9.8	0.8	0.83	45.5	0.7	0.66
